Legend:
[1] = system: cell line E3; assay: Differentiation of clonal hEP cell line E3 in HyStem beads, Illumina microarray gene expression; type: cell-based, human; settings: E3
Experimental: Differentiation medium is high glucose DMEM (CellGro Cat. No. 15-013-CV) with Pyruvate, 1 mM (Gibco Cat. 11360), Pen:Strep 100U/ml:100 ug/ml (Gibco Cat. No. 504284), Glutamax 2 mM (Gibco Cat. No. 35050), Dexamethasone 0.1 uM (Sigma, St. Louis, Mo., Cat. No. D1756-100), L-Proline 0.35 mM (Sigma Cat. No. D49752), 2-phospho-L-Ascorbic Acid 0.17 mM (Sigma, Cat. No. 49792, Fluka), and ITS Premix (BD, Franklin Lakes, N.J., sterile Cat. No. 47743-628) with a final concentration 6.25 ug/ml insulin, 6.25 ug/ml transferrin, 6.25 ng/ml selenious acid, serum albumin 1.25 mg/ml, 5.35 ug/ml linoleic acid. In various differentiation conditions, the Differentiation medium is supplemented with various growth factors or other differentiation factors as described herein.
The Gelin-S® component (10 mg of thiol-modified gelatin (BioTime)) is dissolved in 1.0 ml of degassed deionized water to prepare a 1% w/v solution, and polyethylene glycol diacrylate (10 mg of PEGDA) is dissolved in 0.5 ml of degassed deionized water to prepare a 2% w/v solution. Then, HyStem (1 ml, 1% w/v) is mixed with Gelin-S (1 ml, 1% w/v) immediately before use. Pelleted cells are resuspended in the recently prepared HyStem:Gelin-S (1:1 v/v) mix described above. Upon the addition of the PEGDA cross-linker, the cell suspension, at a final concentration of 2.0×10^7 cells/ml is aliquoted (25 μl/aliquot) into six-well plates (Corning® 3516; VWR, PA, USA) after partial gelation. Following complete gelation (20 min), Differentiation Medium is added to each well. Plates were then placed in a humidified incubator at 37° C. with ambient O2 and 10% CO2, and the cells were fed three-times weekly. At the desired time point, hydrogel constructs were either fixed and processed for immunohistochemical analysis or lysed using RLT (Qiagen, CA, USA) with 1% beta-mercaptoethanol for total RNA to analyze transcript expression using quantitative real-time PCR (qRT-PCR) and/or whole-genome microarray.
Total RNA was extracted directly from cells growing in 6-well plates or 10 cm tissue culture dishes using Qiagen RNeasy mini kits according to the manufacturer's instructions. RNA concentrations were measured using a Beckman DU530 or Nanodrop spectrophotometer and RNA quality was determined by denaturing agarose gel electrophoresis or using an Agilent 2100 bioanalyzer. Whole-genome expression analysis was carried out using Illumina Human Ref-8v3 or Human HT-12 v4 BeadArrays, and RNA levels for certain genes were confirmed by qRT-PCR. For the Illumina BeadArrays, total RNA was linearly amplified and biotin-labeled using Illumina TotalPrep kits (Life Technologies, Temecula, Calif., USA), and cRNA was quality-controlled using an Agilent 2100 Bioanalyzer. The cRNA was hybridized to Illumina BeadChips, processed, and read using a BeadStation array reader according to the manufacturer's instructions (Illumina, San Diego, Calif., USA). Values of less than 120 relative fluorescence units (RFUs) were considered as nonspecific background signal.

[2] = system: cell line E72; assay: Differentiation of cell line E72 in HyStem, gene expression; type: cell-based, human
Experimental: HyStem-C (BioTime, Inc. Alameda, Calif.) (BioTime, Alameda, Calif., USA) was reconstituted following the manufacturer's instructions. Briefly, the HyStem component (thiol modified hyaluronan, 10 mg) was dissolved in 1.0 ml degassed deionized water for about 20 minutes to prepare a 1% w/v solution. The Gelin-S component (thiol modified gelatin, 10 mg) was dissolved in 1 ml degassed deionized water to prepare a 1% w/v solution, and PEGDA (PEG diacrylate, 10 mg) was dissolved in 0.5 ml degassed deionized water to prepare a 2% w/v solution. HyStem (1 ml, 1% w/v) was mixed with Gelin-S (1 ml, 1% w/v) immediately before use. Pelleted cells were resuspended in recently prepared HyStem:Gelin-S (1:1 v/v) mix described above. Upon the addition of crosslinker PEGDA, the cell suspension, at a final concentration of 2.0×10^7 cells/ml, was aliquoted at 25 μl aliquot four to five times into each well of 6 well plates (Corning 3516) after partial gelation to form attached beads. Following complete gelation (20 minutes), chondrogenic medium was added to each well (i.e about 4 ml/each well of a 6 well plate). […]
The Gelin-S® component (10 mg of thiol-modified gelatin (BioTime)) is dissolved in 1.0 ml of degassed deionized water to prepare a 1% w/v solution, and polyethylene glycol diacrylate (10 mg of PEGDA) is dissolved in 0.5 ml of degassed deionized water to prepare a 2% w/v solution. […] At the desired time point, hydrogel constructs were either fixed and processed for immunohistochemical analysis or lysed using RLT (Qiagen, CA, USA) with 1% beta-mercaptoethanol for total RNA to analyze transcript expression using quantitative real-time PCR (qRT-PCR) and/or whole-genome microarray.
Total RNA was extracted directly from cells growing in 6-well plates or 10 cm tissue culture dishes using Qiagen RNeasy mini kits according to the manufacturer's instructions. RNA concentrations were measured using a Beckman DU530 or Nanodrop spectrophotometer and RNA quality was determined by denaturing agarose gel electrophoresis or using an Agilent 2100 bioanalyzer. […] The cRNA was hybridized to Illumina BeadChips, processed, and read using a BeadStation array reader according to the manufacturer's instructions (Illumina, San Diego, Calif., USA).

B1: BMP4: Bone Morphogenetic Protein 4, TGF-beta superfamily member (protein, UniProt P12644 293-408, looked up)
Bone morphogenetic protein 4: SPKHHSQRARKKNKNCRRHSLYVDFSDVGWNDWIVAPPGYQAFYCHGDCPFPLADHLNSTNHAIVQTLVNSVNSSIPKACCVPTELSAISMLYLDEYDKVVLKNYQEMVVEGCGCR
In the case of B1, the “expression of C19ORF80 transcript” value ([1]; HyStem beads supplemented with 10 ng/ml BMP4, FIG. 2) is reported as “highest expression”, the PCK1 transcript expression ([1]; HyStem beads with 10 ng/ml BMP4 or 100 ng/ml BMP7, FIG. 5) is reported as “relatively high levels” and the “markers normally associated with enamel, enamelin (ENAM) and amelogenin (AMELX)” value ([2]; E72, HyStem in the presence of BMP4 and TGFβ3) is reported as “expressed the markers normally associated with enamel”. For the same molecule, the “markers of endochondral ossification including COL2A1, ALPL, IBSP, and osteopontin (SPP1)” value ([2]; E72 passage 11, 21 days in HyStem with 10 ng/mL TGFβ3 together with BMP4 (10 ng/mL) or BMP2 (50 ng/mL)) was “relatively high levels” and the “adipocyte markers FABP4 and CD36” value ([2]; E72 passage 12, 21 days in HyStem with 10 ng/mL BMP4) was “relatively high levels”.
